“And” between values parts separate entries of the source, which are not always exact repeats. Identical values can stand only once.
How the values were obtained:
SEC = molecular target: the molecule itself; assay: SEC
[1] = substrate: [H][C@]12SCC(COC(C)=O)=C(C(=O)O)N1C(=O)[C@H]2NC(=O)CCC[C@@H](N)C(=O)O; assay: acetate release, Michaelis-Menten; assay type: biochemical, Thermotoga maritima; conditions: 50 mM sodium phosphate pH 6.5, 60 °C

B1: Thermotoga maritima acetyl xylan esterase AxeA (enzyme)
chain: MAFFDLPLEELKKYRPERYEEKDFDEFWEETLAESEKFPLDPVFERMESHLKTVEAYDVTFSGYRGQRIKGWLLVPKLEEEKLPCVVQYIGYNGGRGFPHDWLFWPSMGYICFVMDTRGQGSGWLKGDTPDYPEGPVDPQYPGFMTRGILDPRTYYYRRVFTDAVRAVEAAASFPQVDQERIVIAGGSQGGGIALAVSALSKKAKALLCDVPFLCHFRRAVQLVDTHPYAEITNFLKTHRDKEEIVFRTLSYFDGVNFAARAKIPALFSVGLMDNICPPSTVFAAYNYYAGPKEIRIYPYNNHEGGGSFQAVEQVKFLKKLFEKG
stoichiometry N (SEC): 6 and 2
Km [1]: 4.18 ± 0.97 mM
Vmax [1]: 19.2 µmol/min/mg
kcat [1]: 11.8 s⁻¹
kcat/Km [1]: 2830 M⁻¹ s⁻¹
